Data on four substances can be found in article PMC9135340.

The target in test [1] is PTCH1 (Homo sapiens) (UniProt Q13635). The settings on record: cited from earlier work.
The target of test [2] is PTCH2 (Homo sapiens) (UniProt Q9Y6C5). Conditions: cited from earlier work.
The target in test [3] is PTCH1 (Homo sapiens) (UniProt Q13635). The settings on record: cited from earlier work. The source holds these as a separate data set.
For test [4], the target named is PTCH2 (Homo sapiens) (UniProt Q9Y6C5). The settings on record: cited from earlier work. This is another data set of the same source.
Test [5] concerns the target PTCH1 (Homo sapiens) (UniProt Q13635). The settings on record: cited from earlier work. The source holds these as a separate data set.
For test [6], the target named is PTCH2 (Homo sapiens) (UniProt Q9Y6C5). Conditions: cited from earlier work. This is another data set of the same source.
Test [7] deals with recombinant PTCH2 (amino acids 79 to 379; putative loop 1 ligand binding region) (UniProt Q9Y6C5). Description: SPR; Biacore T100; rPTCH2-His immobilised on a nickel chip; rTRP120-TR or rTrx injected at 2-fold dilutions (800nM to 25nM); three independent experiments.
recombinant PTCH2 (amino acids 79 to 379; putative loop 1 ligand binding region), sequence (Q9Y6C5 79-379): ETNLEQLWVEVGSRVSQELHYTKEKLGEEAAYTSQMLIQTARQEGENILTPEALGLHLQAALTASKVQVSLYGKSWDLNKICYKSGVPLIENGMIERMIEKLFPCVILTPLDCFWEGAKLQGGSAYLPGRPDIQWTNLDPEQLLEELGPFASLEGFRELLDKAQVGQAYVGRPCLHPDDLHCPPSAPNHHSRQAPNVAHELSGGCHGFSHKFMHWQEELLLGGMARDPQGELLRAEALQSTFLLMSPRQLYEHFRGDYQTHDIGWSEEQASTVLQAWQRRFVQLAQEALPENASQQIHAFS

Like-named read-outs stand apart in the source and are kept apart here.

PTCH2 (Homo sapiens), sequence (Q9Y6C5 whole entry, the tested form may be a part): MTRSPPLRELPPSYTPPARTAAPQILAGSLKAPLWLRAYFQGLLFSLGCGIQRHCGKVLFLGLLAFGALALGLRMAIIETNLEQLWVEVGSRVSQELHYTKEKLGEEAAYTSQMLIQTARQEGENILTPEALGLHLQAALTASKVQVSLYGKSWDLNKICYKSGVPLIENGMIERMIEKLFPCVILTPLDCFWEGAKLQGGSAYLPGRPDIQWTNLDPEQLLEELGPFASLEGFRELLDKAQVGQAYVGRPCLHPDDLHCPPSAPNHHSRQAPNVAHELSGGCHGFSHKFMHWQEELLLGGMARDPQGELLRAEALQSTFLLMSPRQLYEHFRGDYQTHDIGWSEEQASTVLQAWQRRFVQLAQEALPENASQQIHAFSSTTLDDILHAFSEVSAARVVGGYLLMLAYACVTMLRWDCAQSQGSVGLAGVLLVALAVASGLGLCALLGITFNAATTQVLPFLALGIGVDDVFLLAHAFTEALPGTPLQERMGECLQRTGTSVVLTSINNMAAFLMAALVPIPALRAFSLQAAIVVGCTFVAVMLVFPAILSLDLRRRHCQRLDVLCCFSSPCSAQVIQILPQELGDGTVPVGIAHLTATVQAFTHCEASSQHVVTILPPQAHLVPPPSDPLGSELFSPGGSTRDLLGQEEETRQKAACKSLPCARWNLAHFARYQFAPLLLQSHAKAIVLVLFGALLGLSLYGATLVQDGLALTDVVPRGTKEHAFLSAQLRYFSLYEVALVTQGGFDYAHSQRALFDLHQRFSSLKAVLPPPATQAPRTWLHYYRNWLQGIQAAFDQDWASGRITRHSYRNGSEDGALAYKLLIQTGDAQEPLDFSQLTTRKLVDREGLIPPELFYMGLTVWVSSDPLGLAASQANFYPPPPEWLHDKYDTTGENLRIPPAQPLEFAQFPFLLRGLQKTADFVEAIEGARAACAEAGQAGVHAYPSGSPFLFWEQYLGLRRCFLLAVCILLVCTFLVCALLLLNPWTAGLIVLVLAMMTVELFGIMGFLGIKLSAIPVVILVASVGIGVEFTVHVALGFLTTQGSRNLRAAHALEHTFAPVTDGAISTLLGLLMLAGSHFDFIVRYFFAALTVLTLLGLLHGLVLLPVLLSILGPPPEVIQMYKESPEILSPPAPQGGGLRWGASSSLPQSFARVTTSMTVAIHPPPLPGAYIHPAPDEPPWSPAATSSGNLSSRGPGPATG
PTCH1 (Homo sapiens), sequence (Q13635 whole entry): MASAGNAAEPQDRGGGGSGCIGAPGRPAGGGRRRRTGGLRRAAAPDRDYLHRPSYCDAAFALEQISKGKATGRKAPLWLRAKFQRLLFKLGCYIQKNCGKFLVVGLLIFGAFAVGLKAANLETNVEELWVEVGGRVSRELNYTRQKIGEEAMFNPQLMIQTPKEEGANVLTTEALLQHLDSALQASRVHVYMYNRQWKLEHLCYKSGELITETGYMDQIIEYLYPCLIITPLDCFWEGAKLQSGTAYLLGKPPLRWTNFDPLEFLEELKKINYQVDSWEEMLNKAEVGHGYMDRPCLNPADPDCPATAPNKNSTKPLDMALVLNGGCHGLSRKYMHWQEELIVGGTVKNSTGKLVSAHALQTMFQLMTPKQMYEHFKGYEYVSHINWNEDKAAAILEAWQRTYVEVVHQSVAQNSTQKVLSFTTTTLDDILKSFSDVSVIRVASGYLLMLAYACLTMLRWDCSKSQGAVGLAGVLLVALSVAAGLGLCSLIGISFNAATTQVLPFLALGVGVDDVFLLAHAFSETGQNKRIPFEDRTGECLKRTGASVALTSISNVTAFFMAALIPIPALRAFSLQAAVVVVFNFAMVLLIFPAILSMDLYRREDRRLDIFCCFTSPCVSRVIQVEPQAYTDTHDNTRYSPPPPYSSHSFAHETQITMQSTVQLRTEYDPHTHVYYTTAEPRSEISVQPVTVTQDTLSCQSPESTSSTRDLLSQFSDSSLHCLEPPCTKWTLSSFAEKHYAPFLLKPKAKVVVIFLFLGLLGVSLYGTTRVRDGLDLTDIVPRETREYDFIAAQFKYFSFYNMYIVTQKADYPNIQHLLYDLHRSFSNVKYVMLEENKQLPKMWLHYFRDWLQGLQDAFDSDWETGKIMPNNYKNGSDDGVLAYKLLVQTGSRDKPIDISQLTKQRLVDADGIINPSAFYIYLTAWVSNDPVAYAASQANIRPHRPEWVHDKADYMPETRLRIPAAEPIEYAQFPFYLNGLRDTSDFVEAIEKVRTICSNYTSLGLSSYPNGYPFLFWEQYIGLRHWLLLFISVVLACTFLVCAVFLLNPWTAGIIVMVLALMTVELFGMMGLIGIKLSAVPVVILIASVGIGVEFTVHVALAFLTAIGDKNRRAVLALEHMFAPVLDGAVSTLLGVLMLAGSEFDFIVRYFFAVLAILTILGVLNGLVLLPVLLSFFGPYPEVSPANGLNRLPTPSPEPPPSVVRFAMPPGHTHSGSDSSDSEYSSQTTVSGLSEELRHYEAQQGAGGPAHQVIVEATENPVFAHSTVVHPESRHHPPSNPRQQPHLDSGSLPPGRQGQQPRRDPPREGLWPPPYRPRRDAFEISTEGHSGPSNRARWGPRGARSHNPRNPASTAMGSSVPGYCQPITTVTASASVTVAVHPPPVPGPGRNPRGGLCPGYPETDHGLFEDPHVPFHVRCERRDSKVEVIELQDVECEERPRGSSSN
Ihh, sequence (Q14623 28-202): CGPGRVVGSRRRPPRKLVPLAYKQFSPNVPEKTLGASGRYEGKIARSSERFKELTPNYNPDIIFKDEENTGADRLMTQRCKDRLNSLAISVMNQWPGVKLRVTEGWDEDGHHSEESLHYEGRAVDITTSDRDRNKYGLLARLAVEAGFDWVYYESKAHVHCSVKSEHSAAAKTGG

As usually defined, the Kd is a measure of binding affinity in units of concentration. For Dhh (from UniProt O43323), the Kd with PTCH1 (Homo sapiens) [1] is 2.6 nM; with PTCH2 (Homo sapiens) [2], 0.6 nM. Ihh (from UniProt Q14623): the Kd with PTCH1 (Homo sapiens) [3] is 1 nM; with PTCH2 (Homo sapiens) [4], 0.4 nM.

Take Shh (from UniProt Q15465): the dissociation constant (Kd) with PTCH1 (Homo sapiens) [5] is 1 nM; with PTCH2 (Homo sapiens) [6], 1.8 nM.

For “recombinant TRP120 tandem repeat domain (rTRP120-TR) (domain or fragment)”, in test [7], the Kd amounted to 4.4 nM.
